# Patent US20260015399A1 (Boehringer Ingelheim, published 2026)
# *1 amine or outer side, *2 acyl side, *3 side chain or, on linkers, in order; H or OH if unused. Side-chain parts run from the residue outwards. The star is where a group is joined. C18 diacid = O=C(O)CCCCCCCCCCCCCCCCC(=O)*; γGlu = O=C(O)[C@H](CCC(=O)[*:2])N[*:1]; Isovaleryl = CC(C)CC(=O)*; Ahx = NCCCCCC(=O)O
# T1: human NPY2 receptor (human, UniProt P49146 1-381)
# T1 construct: whole, on cells; also called hNPY2-R; hNPY2R
# T1 sequence (looked up): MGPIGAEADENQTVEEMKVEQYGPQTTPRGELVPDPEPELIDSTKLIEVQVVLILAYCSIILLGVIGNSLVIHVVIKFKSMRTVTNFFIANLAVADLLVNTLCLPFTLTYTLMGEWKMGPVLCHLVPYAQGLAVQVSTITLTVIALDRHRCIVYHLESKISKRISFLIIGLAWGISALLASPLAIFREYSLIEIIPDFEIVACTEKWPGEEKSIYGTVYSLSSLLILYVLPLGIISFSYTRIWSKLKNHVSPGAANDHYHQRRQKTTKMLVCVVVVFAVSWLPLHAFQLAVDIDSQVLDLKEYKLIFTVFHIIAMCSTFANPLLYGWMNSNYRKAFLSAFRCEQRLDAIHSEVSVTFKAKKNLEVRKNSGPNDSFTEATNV
# B1: Compound 66 (peptide)
# peptide: Isovaleryl-APEK([Ahx-γGlu-C18 diacid])PEEDATPEELQRYYISLRHYYNWLTRQRY-NH2
# SMILES: CC[C@H](C)[C@H](NC(=O)[C@H](Cc1ccc(O)cc1)NC(=O)[C@H](Cc1ccc(O)cc1)NC(=O)[C@H](CCCNC(=N)N)NC(=O)[C@H](CCC(N)=O)NC(=O)[C@H](CC(C)C)NC(=O)[C@H](CCC(=O)O)NC(=O)[C@H](CCC(=O)O)NC(=O)[C@@H]1CCCN1C(=O)[C@@H](NC(=O)[C@H](C)NC(=O)[C@H](CC(=O)O)NC(=O)[C@H](CCC(=O)O)NC(=O)[C@H](CCC(=O)O)NC(=O)[C@@H]1CCCN1C(=O)[C@H](CCCCNC(=O)CCCCCNC(=O)CC[C@H](NC(=O)CCCCCCCCCCCCCCCCC(=O)O)C(=O)O)NC(=O)[C@H](CCC(=O)O)NC(=O)[C@@H]1CCCN1C(=O)[C@H](C)NC(=O)CC(C)C)[C@@H](C)O)C(=O)N[C@@H](CO)C(=O)N[C@@H](CC(C)C)C(=O)N[C@@H](CCCNC(=N)N)C(=O)N[C@@H](Cc1c[nH]cn1)C(=O)N[C@@H](Cc1ccc(O)cc1)C(=O)N[C@@H](Cc1ccc(O)cc1)C(=O)N[C@@H](CC(N)=O)C(=O)N[C@@H](Cc1c[nH]c2ccccc12)C(=O)N[C@@H](CC(C)C)C(=O)N[C@H](C(=O)N[C@@H](CCCNC(=N)N)C(=O)N[C@@H](CCC(N)=O)C(=O)N[C@@H](CCCNC(=N)N)C(=O)N[C@@H](Cc1ccc(O)cc1)C(N)=O)[C@@H](C)O
# B2: Compound 78 (peptide)
# peptide: Isovaleryl-APAK([Ahx-γGlu-C18 diacid])PEEDASPEELQRYYVSLRHYYQWLTRQRY-NH2
# SMILES: CC(C)CC(=O)N[C@@H](C)C(=O)N1CCC[C@H]1C(=O)N[C@@H](C)C(=O)N[C@@H](CCCCNC(=O)CCCCCNC(=O)CC[C@H](NC(=O)CCCCCCCCCCCCCCCCC(=O)O)C(=O)O)C(=O)N1CCC[C@H]1C(=O)N[C@@H](CCC(=O)O)C(=O)N[C@@H](CCC(=O)O)C(=O)N[C@@H](CC(=O)O)C(=O)N[C@@H](C)C(=O)N[C@@H](CO)C(=O)N1CCC[C@H]1C(=O)N[C@@H](CCC(=O)O)C(=O)N[C@@H](CCC(=O)O)C(=O)N[C@@H](CC(C)C)C(=O)N[C@@H](CCC(N)=O)C(=O)N[C@@H](CCCNC(=N)N)C(=O)N[C@@H](Cc1ccc(O)cc1)C(=O)N[C@@H](Cc1ccc(O)cc1)C(=O)N[C@H](C(=O)N[C@@H](CO)C(=O)N[C@@H](CC(C)C)C(=O)N[C@@H](CCCNC(=N)N)C(=O)N[C@@H](Cc1c[nH]cn1)C(=O)N[C@@H](Cc1ccc(O)cc1)C(=O)N[C@@H](Cc1ccc(O)cc1)C(=O)N[C@@H](CCC(N)=O)C(=O)N[C@@H](Cc1c[nH]c2ccccc12)C(=O)N[C@@H](CC(C)C)C(=O)N[C@H](C(=O)N[C@@H](CCCNC(=N)N)C(=O)N[C@@H](CCC(N)=O)C(=O)N[C@@H](CCCNC(=N)N)C(=O)N[C@@H](Cc1ccc(O)cc1)C(N)=O)[C@@H](C)O)C(C)C
# B3: Compound 69 (peptide)
# peptide: Isovaleryl-APEK([Ahx-γGlu-C18 diacid])PPADASPEETQRYYVSLRHYYNWLTRQRY-NH2
# SMILES: CC(C)CC(=O)N[C@@H](C)C(=O)N1CCC[C@H]1C(=O)N[C@@H](CCC(=O)O)C(=O)N[C@@H](CCCCNC(=O)CCCCCNC(=O)CC[C@H](NC(=O)CCCCCCCCCCCCCCCCC(=O)O)C(=O)O)C(=O)N1CCC[C@H]1C(=O)N1CCC[C@H]1C(=O)N[C@@H](C)C(=O)N[C@@H](CC(=O)O)C(=O)N[C@@H](C)C(=O)N[C@@H](CO)C(=O)N1CCC[C@H]1C(=O)N[C@@H](CCC(=O)O)C(=O)N[C@@H](CCC(=O)O)C(=O)N[C@H](C(=O)N[C@@H](CCC(N)=O)C(=O)N[C@@H](CCCNC(=N)N)C(=O)N[C@@H](Cc1ccc(O)cc1)C(=O)N[C@@H](Cc1ccc(O)cc1)C(=O)N[C@H](C(=O)N[C@@H](CO)C(=O)N[C@@H](CC(C)C)C(=O)N[C@@H](CCCNC(=N)N)C(=O)N[C@@H](Cc1c[nH]cn1)C(=O)N[C@@H](Cc1ccc(O)cc1)C(=O)N[C@@H](Cc1ccc(O)cc1)C(=O)N[C@@H](CC(N)=O)C(=O)N[C@@H](Cc1c[nH]c2ccccc12)C(=O)N[C@@H](CC(C)C)C(=O)N[C@H](C(=O)N[C@@H](CCCNC(=N)N)C(=O)N[C@@H](CCC(N)=O)C(=O)N[C@@H](CCCNC(=N)N)C(=O)N[C@@H](Cc1ccc(O)cc1)C(N)=O)[C@@H](C)O)C(C)C)[C@@H](C)O
# B4: Compound 68 (peptide)
# peptide: Isovaleryl-APEK([Ahx-γGlu-C18 diacid])PEEDAEPEELQRYYVSLRHYYQWLTRQRY-NH2
# SMILES: CC(C)CC(=O)N[C@@H](C)C(=O)N1CCC[C@H]1C(=O)N[C@@H](CCC(=O)O)C(=O)N[C@@H](CCCCNC(=O)CCCCCNC(=O)CC[C@H](NC(=O)CCCCCCCCCCCCCCCCC(=O)O)C(=O)O)C(=O)N1CCC[C@H]1C(=O)N[C@@H](CCC(=O)O)C(=O)N[C@@H](CCC(=O)O)C(=O)N[C@@H](CC(=O)O)C(=O)N[C@@H](C)C(=O)N[C@@H](CCC(=O)O)C(=O)N1CCC[C@H]1C(=O)N[C@@H](CCC(=O)O)C(=O)N[C@@H](CCC(=O)O)C(=O)N[C@@H](CC(C)C)C(=O)N[C@@H](CCC(N)=O)C(=O)N[C@@H](CCCNC(=N)N)C(=O)N[C@@H](Cc1ccc(O)cc1)C(=O)N[C@@H](Cc1ccc(O)cc1)C(=O)N[C@H](C(=O)N[C@@H](CO)C(=O)N[C@@H](CC(C)C)C(=O)N[C@@H](CCCNC(=N)N)C(=O)N[C@@H](Cc1c[nH]cn1)C(=O)N[C@@H](Cc1ccc(O)cc1)C(=O)N[C@@H](Cc1ccc(O)cc1)C(=O)N[C@@H](CCC(N)=O)C(=O)N[C@@H](Cc1c[nH]c2ccccc12)C(=O)N[C@@H](CC(C)C)C(=O)N[C@H](C(=O)N[C@@H](CCCNC(=N)N)C(=O)N[C@@H](CCC(N)=O)C(=O)N[C@@H](CCCNC(=N)N)C(=O)N[C@@H](Cc1ccc(O)cc1)C(N)=O)[C@@H](C)O)C(C)C
# B5: Compound 77 (peptide)
# peptide: Isovaleryl-APAK([Ahx-γGlu-C18 diacid])PEEDASPEELQRYYVSLRHYQNWLTRQRY-NH2
# SMILES: CC(C)CC(=O)N[C@@H](C)C(=O)N1CCC[C@H]1C(=O)N[C@@H](C)C(=O)N[C@@H](CCCCNC(=O)CCCCCNC(=O)CC[C@H](NC(=O)CCCCCCCCCCCCCCCCC(=O)O)C(=O)O)C(=O)N1CCC[C@H]1C(=O)N[C@@H](CCC(=O)O)C(=O)N[C@@H](CCC(=O)O)C(=O)N[C@@H](CC(=O)O)C(=O)N[C@@H](C)C(=O)N[C@@H](CO)C(=O)N1CCC[C@H]1C(=O)N[C@@H](CCC(=O)O)C(=O)N[C@@H](CCC(=O)O)C(=O)N[C@@H](CC(C)C)C(=O)N[C@@H](CCC(N)=O)C(=O)N[C@@H](CCCNC(=N)N)C(=O)N[C@@H](Cc1ccc(O)cc1)C(=O)N[C@@H](Cc1ccc(O)cc1)C(=O)N[C@H](C(=O)N[C@@H](CO)C(=O)N[C@@H](CC(C)C)C(=O)N[C@@H](CCCNC(=N)N)C(=O)N[C@@H](Cc1c[nH]cn1)C(=O)N[C@@H](Cc1ccc(O)cc1)C(=O)N[C@@H](CCC(N)=O)C(=O)N[C@@H](CC(N)=O)C(=O)N[C@@H](Cc1c[nH]c2ccccc12)C(=O)N[C@@H](CC(C)C)C(=O)N[C@H](C(=O)N[C@@H](CCCNC(=N)N)C(=O)N[C@@H](CCC(N)=O)C(=O)N[C@@H](CCCNC(=N)N)C(=O)N[C@@H](Cc1ccc(O)cc1)C(N)=O)[C@@H](C)O)C(C)C
# B6: Compound 73 (peptide)
# peptide: Isovaleryl-APEK([Ahx-γGlu-C18 diacid])PEEAASPEELQRYYVALRHYYNWLTRQRY-NH2
# SMILES: CC(C)CC(=O)N[C@@H](C)C(=O)N1CCC[C@H]1C(=O)N[C@@H](CCC(=O)O)C(=O)N[C@@H](CCCCNC(=O)CCCCCNC(=O)CC[C@H](NC(=O)CCCCCCCCCCCCCCCCC(=O)O)C(=O)O)C(=O)N1CCC[C@H]1C(=O)N[C@@H](CCC(=O)O)C(=O)N[C@@H](CCC(=O)O)C(=O)N[C@@H](C)C(=O)N[C@@H](C)C(=O)N[C@@H](CO)C(=O)N1CCC[C@H]1C(=O)N[C@@H](CCC(=O)O)C(=O)N[C@@H](CCC(=O)O)C(=O)N[C@@H](CC(C)C)C(=O)N[C@@H](CCC(N)=O)C(=O)N[C@@H](CCCNC(=N)N)C(=O)N[C@@H](Cc1ccc(O)cc1)C(=O)N[C@@H](Cc1ccc(O)cc1)C(=O)N[C@H](C(=O)N[C@@H](C)C(=O)N[C@@H](CC(C)C)C(=O)N[C@@H](CCCNC(=N)N)C(=O)N[C@@H](Cc1c[nH]cn1)C(=O)N[C@@H](Cc1ccc(O)cc1)C(=O)N[C@@H](Cc1ccc(O)cc1)C(=O)N[C@@H](CC(N)=O)C(=O)N[C@@H](Cc1c[nH]c2ccccc12)C(=O)N[C@@H](CC(C)C)C(=O)N[C@H](C(=O)N[C@@H](CCCNC(=N)N)C(=O)N[C@@H](CCC(N)=O)C(=O)N[C@@H](CCCNC(=N)N)C(=O)N[C@@H](Cc1ccc(O)cc1)C(N)=O)[C@@H](C)O)C(C)C
# Biological target: T1, human NPY2 receptor
# Test: RLB: displacement of 125I-PYY(1-36) from hNPY2R membranes
row,Ki [nM],Binder
1,2.33,B1
2,1.8,B2
3,0.54,B3
4,9.07,B4
5,9.73,B5
6,2.16,B6
